Read-outs that look alike come from different tables or passages of the source. Numbered stars: 1 amine (or outer) side, 2 acyl side, 3 side chain; on linkers, the order of the positions; unused ones are H or OH. Square brackets hold non-standard residues; d marks the D form. Side chains are listed from the residue outwards. Ends that are not written are not given here. * marks the point of attachment. C20 diacid = O=C(O)CCCCCCCCCCCCCCCCCCC(=O)*; C18 diacid = O=C(O)CCCCCCCCCCCCCCCCC(=O)*; γGlu = O=C(O)[C@H](CCC(=O)[*:2])N[*:1]; AEEA = NCCOCCOCC(=O)O; Aib = CC(C)(N)C(=O)O
B1: SEQ ID NO: 168 (peptide)
peptide: H[Aib]EGTFTSDVSELK([AEEA-AEEA-γGlu-C20 diacid])EEA[Aib]LQRFLEHLV-NH2
B2: SEQ ID NO: 209 (peptide)
peptide: H[Aib]EGTFTSDVSYLK([AEEA-AEEA-γGlu-C20 diacid])EEA[Aib]LQRFLEHLVEAA-NH2
modifications: N-terminus assumed
SMILES: CC(C)C[C@H](NC(=O)[C@H](Cc1ccccc1)NC(=O)[C@H](CCCNC(=N)N)NC(=O)[C@H](CCC(N)=O)NC(=O)[C@H](CC(C)C)NC(=O)C(C)(C)NC(=O)[C@H](C)NC(=O)[C@H](CCC(=O)O)NC(=O)[C@H](CCC(=O)O)NC(=O)[C@H](CCCCNC(=O)COCCOCCNC(=O)COCCOCCNC(=O)CC[C@H](NC(=O)CCCCCCCCCCCCCCCCCCC(=O)O)C(=O)O)NC(=O)[C@H](CC(C)C)NC(=O)[C@H](Cc1ccc(O)cc1)NC(=O)[C@H](CO)NC(=O)[C@@H](NC(=O)[C@H](CC(=O)O)NC(=O)[C@H](CO)NC(=O)[C@@H](NC(=O)[C@H](Cc1ccccc1)NC(=O)[C@@H](NC(=O)CNC(=O)[C@H](CCC(=O)O)NC(=O)C(C)(C)NC(=O)[C@@H](N)Cc1c[nH]cn1)[C@@H](C)O)[C@@H](C)O)C(C)C)C(=O)N[C@@H](CCC(=O)O)C(=O)N[C@@H](Cc1c[nH]cn1)C(=O)N[C@@H](CC(C)C)C(=O)N[C@H](C(=O)N[C@@H](CCC(=O)O)C(=O)N[C@@H](C)C(=O)N[C@@H](C)C(N)=O)C(C)C
B3: SEQ ID NO: 210 (peptide)
peptide: H[Aib]EGTFTSDVSELK([AEEA-AEEA-γGlu-C20 diacid])EEA[Aib]LQRFLEHLVEAA-NH2
B4: SEQ ID NO: 212 (peptide)
peptide: H[Aib]EGTFTSDVSRLLEEA[Aib]LQRFLEK([AEEA-AEEA-γGlu-C20 diacid])LVEAA-NH2
B5: SEQ ID NO: 203 (peptide)
peptide: H[Aib]EGTFTSDVSYLK([AEEA-AEEA-γGlu-C20 diacid])EEA[Aib]LQRFLEHLV-NH2
modifications: also: table footnote: C20DA or C18DA
B6: SEQ ID NO: 205 (peptide)
peptide: H[Aib]EGTFTSDVSRLK([AEEA-AEEA-γGlu-C18 diacid])EGAAEQRFLQHLVEAA-NH2
B7: SEQ ID NO: 213 (peptide)
peptide: H[Aib]EGTFTSDVSYLLEEA[Aib]LQRFLEK([AEEA-AEEA-γGlu-C20 diacid])LVEAA-NH2
modifications: N-terminus assumed
SMILES: CC(C)C[C@H](NC(=O)[C@H](CC(C)C)NC(=O)[C@H](Cc1ccc(O)cc1)NC(=O)[C@H](CO)NC(=O)[C@@H](NC(=O)[C@H](CC(=O)O)NC(=O)[C@H](CO)NC(=O)[C@@H](NC(=O)[C@H](Cc1ccccc1)NC(=O)[C@@H](NC(=O)CNC(=O)[C@H](CCC(=O)O)NC(=O)C(C)(C)NC(=O)[C@@H](N)Cc1c[nH]cn1)[C@@H](C)O)[C@@H](C)O)C(C)C)C(=O)N[C@@H](CCC(=O)O)C(=O)N[C@@H](CCC(=O)O)C(=O)N[C@@H](C)C(=O)NC(C)(C)C(=O)N[C@@H](CC(C)C)C(=O)N[C@@H](CCC(N)=O)C(=O)N[C@@H](CCCNC(=N)N)C(=O)N[C@@H](Cc1ccccc1)C(=O)N[C@@H](CC(C)C)C(=O)N[C@@H](CCC(=O)O)C(=O)N[C@@H](CCCCNC(=O)COCCOCCNC(=O)COCCOCCNC(=O)CC[C@H](NC(=O)CCCCCCCCCCCCCCCCCCC(=O)O)C(=O)O)C(=O)N[C@@H](CC(C)C)C(=O)N[C@H](C(=O)N[C@@H](CCC(=O)O)C(=O)N[C@@H](C)C(=O)N[C@@H](C)C(N)=O)C(C)C
B8: SEQ ID NO: 211 (peptide)
peptide: H[Aib]EGTFTSDVSTLK([AEEA-AEEA-γGlu-C20 diacid])EEA[Aib]LQRFLEHLVEAA-NH2
B9: SEQ ID NO: 223 (peptide)
peptide: H[Aib]EGTFTSDLS[Aib]LLEGAALQRFIQWLV-NH2
modifications: N-terminus assumed
SMILES: CC[C@H](C)[C@H](NC(=O)[C@H](Cc1ccccc1)NC(=O)[C@H](CCCNC(=N)N)NC(=O)[C@H](CCC(N)=O)NC(=O)[C@H](CC(C)C)NC(=O)[C@H](C)NC(=O)[C@H](C)NC(=O)CNC(=O)[C@H](CCC(=O)O)NC(=O)[C@H](CC(C)C)NC(=O)[C@H](CC(C)C)NC(=O)C(C)(C)NC(=O)[C@H](CO)NC(=O)[C@H](CC(C)C)NC(=O)[C@H](CC(=O)O)NC(=O)[C@H](CO)NC(=O)[C@@H](NC(=O)[C@H](Cc1ccccc1)NC(=O)[C@@H](NC(=O)CNC(=O)[C@H](CCC(=O)O)NC(=O)C(C)(C)NC(=O)[C@@H](N)Cc1c[nH]cn1)[C@@H](C)O)[C@@H](C)O)C(=O)N[C@@H](CCC(N)=O)C(=O)N[C@@H](Cc1c[nH]c2ccccc12)C(=O)N[C@@H](CC(C)C)C(=O)N[C@H](C(N)=O)C(C)C
B10: SEQ ID NO: 215 (peptide)
peptide: H[Aib]EGTFTSDVSRLK([AEEA-AEEA-γGlu-C20 diacid])EEA[Aib]AQRFLEHLVEAA-NH2
B11: SEQ ID NO: 224 (peptide)
peptide: H[Aib]EGTFTSDLSELLEGAALQRFIQWLV-NH2
modifications: N-terminus assumed
SMILES: CC[C@H](C)[C@H](NC(=O)[C@H](Cc1ccccc1)NC(=O)[C@H](CCCNC(=N)N)NC(=O)[C@H](CCC(N)=O)NC(=O)[C@H](CC(C)C)NC(=O)[C@H](C)NC(=O)[C@H](C)NC(=O)CNC(=O)[C@H](CCC(=O)O)NC(=O)[C@H](CC(C)C)NC(=O)[C@H](CC(C)C)NC(=O)[C@H](CCC(=O)O)NC(=O)[C@H](CO)NC(=O)[C@H](CC(C)C)NC(=O)[C@H](CC(=O)O)NC(=O)[C@H](CO)NC(=O)[C@@H](NC(=O)[C@H](Cc1ccccc1)NC(=O)[C@@H](NC(=O)CNC(=O)[C@H](CCC(=O)O)NC(=O)C(C)(C)NC(=O)[C@@H](N)Cc1c[nH]cn1)[C@@H](C)O)[C@@H](C)O)C(=O)N[C@@H](CCC(N)=O)C(=O)N[C@@H](Cc1c[nH]c2ccccc12)C(=O)N[C@@H](CC(C)C)C(=O)N[C@H](C(N)=O)C(C)C
B12: SEQ ID NO: 204 (peptide)
peptide: H[Aib]EGTFTSDVSRLK([AEEA-AEEA-γGlu-C18 diacid])EGAAEQRFLQHLVEAE-NH2
B13: SEQ ID NO: 206 (peptide)
peptide: H[Aib]EGTFTSDVSRLK([AEEA-AEEA-γGlu-C18 diacid])EGAAEQRFLQHLVAAE-NH2
B14: SEQ ID NO: 214 (peptide)
peptide: H[Aib]EGTFTSDVSELLEEA[Aib]LQRFLEK([AEEA-AEEA-γGlu-C20 diacid])LVEAA-NH2
B15: SEQ ID NO: 207 (peptide)
peptide: H[Aib]EGTFTSDVSRLK([AEEA-AEEA-γGlu-C20 diacid])EEAALQRFLEHLVEAA-NH2
B16: SEQ ID NO: 208 (peptide)
peptide: H[Aib]EGTFTSDVSRLK([AEEA-AEEA-γGlu-C20 diacid])EEA[Aib]LQRFLEHLVEAA-NH2

Assays:
Experiment in all cases: cell-based or functional assay
[1] = target: T1, human GLP-1 receptor (hGLP1R) (human, UniProt P43220 24-463)
[2] = target: T2, human secretin receptor (hSCTR) (human, UniProt P47872 23-440)
[3] = target: T1, human GLP-1 receptor (hGLP1R); remark: listed apart in the source
[4] = target: T2, human secretin receptor (hSCTR); remark: listed apart in the source
[5] = target: T1, human GLP-1 receptor (hGLP1R); remark: listed apart in the source
[6] = target: T2, human secretin receptor (hSCTR); remark: listed apart in the source
[7] = target: T1, human GLP-1 receptor (hGLP1R); remark: listed apart in the source
[8] = target: T2, human secretin receptor (hSCTR); remark: listed apart in the source

T2 sequence (P47872 23-440): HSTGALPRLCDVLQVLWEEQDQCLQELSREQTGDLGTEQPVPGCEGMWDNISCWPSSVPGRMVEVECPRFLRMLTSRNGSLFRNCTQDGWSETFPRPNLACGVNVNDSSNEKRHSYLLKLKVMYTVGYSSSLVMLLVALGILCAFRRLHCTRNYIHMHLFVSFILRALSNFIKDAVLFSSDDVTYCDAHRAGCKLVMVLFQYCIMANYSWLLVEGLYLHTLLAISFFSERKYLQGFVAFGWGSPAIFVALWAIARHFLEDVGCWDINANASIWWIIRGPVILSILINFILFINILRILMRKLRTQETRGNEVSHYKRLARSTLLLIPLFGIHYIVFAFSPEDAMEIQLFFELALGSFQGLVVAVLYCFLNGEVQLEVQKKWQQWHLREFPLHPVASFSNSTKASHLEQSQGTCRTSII

Binder	pEC50 hGLPR1 [1]	pEC50 hSCTR [2]	hGLPR1 EC50 nM (purified peptide) [3] [nM]	hGLPR1 PEC50 (purified peptide) [3]	hSCTR EC50 nM (purified peptide) [4] [nM]	hSCTR pEC50 (purified peptide) [4]	PEC50 hGLPR1 [5]	pEC50 hSCTR [6]	pEC50 hGLPR1 [7]	pEC50 hSCTR [8]
B1	11.2 -log M	7.3 -log M	0.012	10.9 -log M	100	7 -log M	–	–	–	–
B2	–	–	0.0098	11 -log M	330	6.5 -log M	10.9 -log M	6.4 -log M	–	–
B3	–	–	0.0095	11 -log M	190	6.7 -log M	11 -log M	6.8 -log M	–	–
B4	–	–	0.021	10.7 -log M	60	7.2 -log M	10.7 -log M	7.2 -log M	–	–
B5	10.7 -log M	6.7 -log M	0.017	10.8 -log M	190	6.7 -log M	–	–	–	–
B6	–	–	–	–	–	–	11.1 -log M	5.3 -log M	–	–
B7	–	–	0.014	10.9 -log M	890	6.1 -log M	10.8 -log M	6 -log M	–	–
B8	–	–	–	–	–	–	11.2 -log M	7.1 -log M	–	–
B9	–	–	–	–	–	–	–	–	10.2 -log M	8.3 -log M
B10	–	–	–	–	–	–	11 -log M	6.3 -log M	–	–
B11	–	–	–	–	–	–	–	–	10.9 -log M	8.8 -log M
B12	–	–	–	–	–	–	11 -log M	5.6 -log M	–	–
B13	–	–	–	–	–	–	10.8 -log M	5.3 -log M	–	–
B14	–	–	–	–	–	–	10.9 -log M	6.1 -log M	–	–
B15	–	–	–	–	–	–	11 -log M	8.2 -log M	–	–
B16	–	–	0.022	10.6 -log M	24	7.6 -log M	10.6 -log M	7.6 -log M	–	–

From patent US20260201008A1, “SECRETIN-DERIVED GLP1R SELECTIVE AGONISTS” (GUBRA A/S, priority 2023, published 2026)
